Measurements taken from paper doi:10.1101/2021.09.03.458554 (bioRxiv, 2021).

T1: hGid4 (Δ1-115) (human, UniProt Q8IVV7 116-300)
T1 sequence: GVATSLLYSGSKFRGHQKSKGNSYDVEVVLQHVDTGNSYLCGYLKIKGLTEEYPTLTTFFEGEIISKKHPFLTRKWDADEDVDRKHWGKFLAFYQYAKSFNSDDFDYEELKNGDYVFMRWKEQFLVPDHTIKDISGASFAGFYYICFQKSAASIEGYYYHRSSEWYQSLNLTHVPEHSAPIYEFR

T2: yGid10 (Δ1-64, Δ285-292) (S. cerevisiae, UniProt P53242 65-284)
T2 sequence: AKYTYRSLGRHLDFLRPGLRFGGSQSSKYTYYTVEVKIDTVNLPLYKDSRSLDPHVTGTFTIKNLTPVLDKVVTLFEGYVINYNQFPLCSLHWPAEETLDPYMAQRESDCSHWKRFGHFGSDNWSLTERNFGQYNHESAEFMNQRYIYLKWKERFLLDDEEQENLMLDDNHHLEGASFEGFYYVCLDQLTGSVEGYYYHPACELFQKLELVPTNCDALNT


How the values were obtained:
hGid4 (Δ1-115) = target: T1, hGid4 (Δ1-115); assay: fluorescence polarisation
yGid10 (Δ1-64, Δ285-292) = target: T2, yGid10 (Δ1-64, Δ285-292); assay: crystal structure

Binder | binding result (hGid4 (Δ1-115)) | binding result (yGid10 (Δ1-64, Δ285-292))
GVATSLLW [GVATSLLW peptide (hGid4 residues 116-122)] | binds | –
FWLPANLW [FWLPANLW peptide] | – | binds
